Patent US20210340238A1, “TGFß1 INHIBITORS AND USE THEREOF” (Scholar Rock, Inc., priority 2018, published 2021)
“Also recorded” adds a separate entry of the source.

Columns and labels:
[1] = molecular target: Matrix-associated proTGFβ1; assay: MSD-SET binding, ECM average of hLTBP1 and hLTBP3 complexes; design: species or system human; details: average KD of (B) and (C), read-out: (D) ECM AVRG
From the text: (§1) Column (A) of the table provides monoclonal antibodies with discrete amino acid sequences. […] Columns (B), (C), (E) and (F) provide affinities of each of the listed antibodies, measured in KD, towards the antigen complex as indicated, respectively. […] Similarly, Average KD values calculated from (E) and (F) are shown in the corresponding column (G), which collectively represents affinities of the antibodies to cell-surface or cell-associated proTGF complexes. Finally, relative ratios between the average KD values from columns (D) and (G) are expressed as fold bias” in column (H). Thus, the greater the numerical of column (H) is, the greater bias exists for the particular antibody, when comparing binding preferences of the antibody for matrix-associated complexes to cell-surface complexes. This is one way of quantitatively representing and comparing inherent bias of antibodies to their target complexes. Such analyses may be useful in guiding the selection process for a candidate antibody for particular therapeutic use. Select antibodies of the present disclosure, as measured by MSD-SET, show context-bias (i.e., greater than five-fold bias) or unbias (i.e., less than 5-fold bias) toward matrix-associated complexes over cell-associated complexes. […] Without being bound by a particular theory, the differences in the kinetics of the assays and/or differences in the nature of recombinant proteins may account for the noticeable differences seen in Ab19 binding to hGARP complexes observed in the above Octet assay (see Table 6) compared to the below MSD-SET assay (see Table 7 below). For example, the Octet assay measures kinetic on and off rates, while the MSD-SET assay measures binding at equilibrium. In addition, the recombinant antibodies used in the Octet assay were expressed as IgG1 antibodies in yeast, while the antibodies used in the MSD assay were expressed as IgG4 antibodies in mammalian cells.

[2] = test system: Matrix-associated proTGFβ1 vs Cell-associated proTGFβ1; assay: MSD-SET binding, matrix vs cell bias (G/D); design: species or system human; details: ratio of cell average KD to ECM average KD
From the text: as §1

[3] = test system: fibrosis-associated genes (Col1a1, Col3a1, Fn1, Lox, Lox/2, Acta2, Mmp2, Itga11); assay: Unilateral ureteral obstruction (UUO) model of acute kidney fibrosis, qPCR of fibrosis-associated genes; assay type: in vivo, mouse; details: i.p. days −1 and 4, kidney qPCR day 5
Description: Inhibition of acute fibrosis by anti-TGFβ1 antibodies was tested in the unilateral ureteral obstruction (UUO) model of acute kidney fibrosis. In this model, fibrosis is induced in male mice by permanent surgical ligation of the left ureter on study day 0.
Kidneys were collected at the end of study, on day 5 after surgery, and RNA was harvested from these tissues. The degree of fibrosis induction was subsequently assessed by quantitative polymerase chain reaction (qPCR) for a panel of fibrosis-associated genes, including Collagen I (Col1a1), Collagen III (Col3a1), Fibronectin 1 (Fn1), Lysyl Oxidase (Lox), Lysyl Oxidase-like 2 (Lox/2), Smooth muscle actin (Acta2), Matrix metalloprotease (Mmp2), and Integrin alpha 11 (Itga11) (Rolfe, Irvine, Grobbelaar, & Linge, 2007) (Tamaki et al., 1994) (Bansal et al., 2017)(Leaf& Duffield, 2016).

CloudmanS91 tumors = assay: CloudmanS91 melanoma mouse model, combination with anti-PD-1; assay type: in vivo; details: 10 mg/kg and 30 mg/kg i.p. weekly, in combination with anti-PD1
Description: Clone M3 [Cloudman S91 melanoma] (ATCC® CCL-53.1™) cells were obtained from the American Type Culture Collection (ATCC), and were maintained at CR Discovery Services as exponentially growing suspension cultures in Kaighn's modified Ham's F12 Medium supplemented with 2.5% fetal bovine serum, 15% horse serum, 2 mM glutamine, 100 units/mL penicillin G sodium, 100 μg/mL streptomycin sulfate and 25 μg/mL gentamicin. The tumor cells were grown in tissue culture flasks in a humidified incubator at 37° C., in an atmosphere of 5% CO2 and 95% air.
An untreated control was used, data not shown.

proTGFβ1 C4S = proTGFβ1 C4S (Homo sapiens, UniProt P01137, C33S); assay: Octet Red384 pH-sensitivity of binding (dissociation at pH 7 and pH 5); details: dissociation at pH 7 vs pH 5
proTGFβ1 C4S, sequence (P01137 30-390 C33S): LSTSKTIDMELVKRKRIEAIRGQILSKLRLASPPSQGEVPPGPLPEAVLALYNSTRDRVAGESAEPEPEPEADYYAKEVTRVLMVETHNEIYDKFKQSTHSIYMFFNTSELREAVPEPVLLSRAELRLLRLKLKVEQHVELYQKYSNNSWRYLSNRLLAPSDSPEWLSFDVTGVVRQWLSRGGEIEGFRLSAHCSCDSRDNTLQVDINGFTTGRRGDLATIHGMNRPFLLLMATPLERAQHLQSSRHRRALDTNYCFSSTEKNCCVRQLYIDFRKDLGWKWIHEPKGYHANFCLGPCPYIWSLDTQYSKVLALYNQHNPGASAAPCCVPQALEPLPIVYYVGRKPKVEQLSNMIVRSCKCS
Description: The antibodies were tested against sensor-immobilized human proTGFβ1 C4S, which contains a mutation in the prodomain to facilitate proTGFβ1 expression without disulfide linkage to a presentation molecule.
Then, the tips were moved into an activation solution for 5 minutes. […] The activation solution is prepared immediately before use in the experiment. After tip activation, the tips were loaded for 3 minutes with a 10 ug/mL solution of human proTGFβ1 C4S in 10 mM sodium acetate buffer pH 5. After loading, the tips were quenched in ethanolamine pH 8.5 for 15 minutes. The tips were then baseline/blocked with a 20 minute incubation in 1× enhanced kinetics buffer. 1× enhanced kinetics buffer (1×EKB) is 1× kinetics buffer (ForteBio part no 18-1105 diluted from 10× with PBS) with the addition of 2% BSA (Sigma A3059-100G), 0.5 M NaCl (FisherS671-10), and 0.09% tween-20 (P7949-500M). […] The dissociation was performed in 1×KB at pH 7 and pH 5.

[4] = Effective dose and therapeutic window across preclinical models (summary); assay type: in vivo
From the text: Effective amount: An “effective amount” (or therapeutically effective amount, or therapeutic dose) is a dosage, concentration, or dosing regimen that achieves statistically significant clinical benefits (e.g., efficacy) in a patient population.
Therapeutic window: The term “therapeutic window” refers to a range of doses/concentrations that produces therapeutic response without causing significant/observable/unacceptable adverse effect (e.g., within adverse effects that are acceptable or tolerable) in subjects. Therapeutic window may be calculated as a ratio between minimum effective concentrations (MEC) to the minimum toxic concentrations (MTC).

[5] = test system: liver fibrosis (pSmad2/3, hydroxyproline, type I collagen); details: CDHFD mice, weeks 4-12
From the text: The Choline deficient high fat diet (CDHFD) is an established dietary model of Non-Alcoholic steatohepatitis (NASH). In this model, male C57BL/6J mice are fed a choline deficient, 0.1% Methionine, high fat diet for 12 weeks. Three to six weeks after the start of the CDHFD, expression of α-sma protein (a marker for activation of hepatic stellate cells) increases and the development of hepatic fibrosis is accompanied by an increase in the hydroxyproline content accompanied by a rise in intrahepatic collagen synthesis and deposition (Matsumoto et. al, Int J Exp Pathol. 2013 April; 94(2):93-103).
Animals in the test cohorts were on the CDHFD for the duration of the study. A separate cohort of mice were administered a regular chow diet as a study control. […] Antibody test concentrations were as follows: 15 mg/kg, 5 mg/kg or 1.5 mg/kg twice a week (i.e., 30, 10, or 3 mg/kg/week) for a test duration of 8 weeks (i.e., weeks 4 thru 12). An IgG isotype antibody was used as a negative control at 15 mg/kg twice weekly (30 mg/kg/week). Following 8 weeks of dosing, animals were sacrificed and livers collected for analyses.
Serum measurements were also taken to determine the extent of antibody exposure during the study.
TGFβ1 receptor engagement leads to intracellular signaling events including the phosphorylation of Smad2 and Smad3.
Hydroxyproline is a signature amino acid for fibrillar collagens and comprises approximately 13.5% of the protein. […] Hydroxyproline acts as an important diagnostic indicator of the severity of fibrosis.
To assess the levels of type 1 collagen deposition in livers from CDHFD-treated mice, immunohistochemistry (IHC) protocols were developed for anti-mouse type I collagen antibody (rabbit polyclonal; Abcam; ab21286) using the Leica Bond RX staining system. Mouse liver was collected and fixed in 10% neutral buffered formalin (NBF) for 24 hours at room temperature. Fixed livers were then trimmed into 3-5 mm cross sections and stored in 70% ethanol until processed for paraffin infiltration and embedding. Paraffin embedded livers were sectioned at 4 μm and mounted on slides for IHC staining. Type 1 collagen primary antibody was used at a 5 μg/mL final concentration along with a matched isotype primary control (rabbit monoclonal IgG; Cell Signaling Technologies; 3900S). Epitope retrieval was performed with a pH 6 citrate buffer incubated at 100° C. for 20 minutes. […]
Stained slides were sent to HistoTox Labs for imaging with an Aperio AT2 whole slide scanner and collagen staining was analyzed using Visiopharm image analysis software. […] Total collagen positive area was measured using an intensity-based thresholding algorithm which classified each pixel of the image as high positive, medium positive, low positive, or negative staining area.

B1: Ab2: isoform-selective inhibitor of TGFβ1 activation; VH SEQ ID NO: 13, VL SEQ ID NO: 15; human IgG4 (antibody, V domains shown)
VH: EVQLLESGGGLVQPGGSLRLSCAASGFTFADYAMTWVRQAPGKGLEWVSAISGSGAATYFADSVKGRFTISRDNSKNTLYLQMNSLRAEDTAVYYCARVSSGHWDFDYWGQGTLVTVSS
VL: DIQLTQSPSSLSASVGDRVTITCRASQSISSYLNWYQQKPGKAPKLLIYAASNLQSGVPSRFSGSGSGTDFTLTISSLQPEDFATYYCQQTYTVPLTFGGGTKVEIK
modifications: human IgG4 constant regions
Which results are given for B1?
Kd [1]: 0.266 nM; (H) G/D (fold bias) [2]: 8.66 fold; Fibrosis-associated gene expression in UUO kidney vs UUO+IgG ([3]; 3 mg/kg/wk): trend towards reduced Col3a1 expression, though this effect does not reach statistical significance; also recorded: reduction of both Fn1 and, particularly, Lox/2 (P=0.06), though suppression of neither gene is statistically significant; also recorded: Col1a1 and Lox expression were also reduced; Fibrosis-associated gene expression in UUO kidney vs UUO+IgG ([3]; 10 mg/kg/wk): suppressed fibrotic gene induction by UUO; also recorded: highly significant (P<0.005 vs UUO+IgG) inhibition of both Fn1 and Lox/2; also recorded: all genes examined except Mmp2 showed a statistically significant change in expression; Tumor growth (median tumor progression) (CloudmanS91 tumors): delayed tumor growth; pH sensitivity of binding (proTGFβ1 C4S): Ab2 is pH-sensitive; Effective amount [4]: 3 to 30 mg/kg; Relative ratio of phosphorylated Smad2/3 in liver lysates (ELISA) ([5]; 15, 5 or 1.5 mg/kg i.p. twice a week): significantly reduced the relative ratio of phosphorylated Smad2/3 compared to IgG control; also recorded: inverse correlation between serum levels of Ab2 and phosphorylated Smad2/3; also recorded: significantly reduces phosphorylation of Smad2/3 as compared to Ab3 and IgG treated mice on CDHFD; Liver fibrosis as measured by hydroxyproline levels ([5]; i.p. twice a week, vs IgG control): marked reduction in collagen deposition
